The target of this test is Litopenaeus vannamei IRF, endogenous in shrimp tissues (Litopenaeus vannamei (endogenous in intestines and hepatopancreas)). The test can be described thus: native gel or EMSA; native-PAGE of shrimp tissue samples (intestines, hepatopancreas; hemocytes as negative control) with western-blot, beta-actin as control; also hepatopancreas at times after WSSV or poly (I:C) treatment.

Regarding “Litopenaeus vannamei IRF, endogenous in shrimp tissues (natural protein)”, the stoichiometry N amounted to 2.

Source of the values: PMC4602278.
